T1: human NaPi2c (human, UniProt Q8N130 1-599)
T1 construct: whole, on cells; also called Hu NaPi2c; SLC34A3
T1 sequence (looked up): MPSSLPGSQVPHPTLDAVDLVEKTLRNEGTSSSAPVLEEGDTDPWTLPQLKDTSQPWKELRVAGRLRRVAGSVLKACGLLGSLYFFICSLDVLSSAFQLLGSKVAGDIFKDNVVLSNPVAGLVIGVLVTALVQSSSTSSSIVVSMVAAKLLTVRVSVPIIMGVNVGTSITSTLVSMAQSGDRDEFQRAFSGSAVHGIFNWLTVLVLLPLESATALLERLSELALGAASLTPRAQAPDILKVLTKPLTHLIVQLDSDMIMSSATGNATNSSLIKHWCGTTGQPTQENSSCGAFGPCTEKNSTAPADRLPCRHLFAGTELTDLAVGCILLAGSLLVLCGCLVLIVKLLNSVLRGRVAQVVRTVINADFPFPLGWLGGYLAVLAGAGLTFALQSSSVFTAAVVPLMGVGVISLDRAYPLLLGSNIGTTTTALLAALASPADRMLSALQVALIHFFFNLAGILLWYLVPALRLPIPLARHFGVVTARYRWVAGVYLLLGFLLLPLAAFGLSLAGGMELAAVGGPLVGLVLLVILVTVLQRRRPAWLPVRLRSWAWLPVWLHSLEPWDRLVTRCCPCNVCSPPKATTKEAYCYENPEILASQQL

T2: Full length human NaPi2b (sodium-dependent phosphate transporter 2B, SLC34A2) (human, UniProt O95436 1-690)
T2 construct: also called huNaPi2b; CL_#13432
T2 sequence: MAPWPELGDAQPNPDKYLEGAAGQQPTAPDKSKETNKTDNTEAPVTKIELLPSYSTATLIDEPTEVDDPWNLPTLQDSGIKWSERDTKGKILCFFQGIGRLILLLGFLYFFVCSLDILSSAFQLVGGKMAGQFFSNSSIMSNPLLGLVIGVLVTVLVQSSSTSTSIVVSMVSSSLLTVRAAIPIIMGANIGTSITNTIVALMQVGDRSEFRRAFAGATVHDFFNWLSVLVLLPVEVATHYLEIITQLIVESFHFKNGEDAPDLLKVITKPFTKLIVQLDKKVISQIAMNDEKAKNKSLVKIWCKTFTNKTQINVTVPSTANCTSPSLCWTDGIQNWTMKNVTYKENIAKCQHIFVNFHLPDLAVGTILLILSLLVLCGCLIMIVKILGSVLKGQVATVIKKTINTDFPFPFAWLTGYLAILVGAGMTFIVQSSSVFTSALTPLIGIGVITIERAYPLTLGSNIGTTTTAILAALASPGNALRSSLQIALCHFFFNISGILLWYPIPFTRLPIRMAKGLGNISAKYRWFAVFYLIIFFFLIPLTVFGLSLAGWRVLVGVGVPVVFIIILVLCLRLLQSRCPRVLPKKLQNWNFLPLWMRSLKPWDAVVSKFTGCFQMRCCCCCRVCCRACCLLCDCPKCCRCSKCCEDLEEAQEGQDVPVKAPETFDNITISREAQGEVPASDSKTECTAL

T3: Construct 7 (human NaPi2b del 317-326) (human, UniProt O95436 1-690)
T3 construct: also called CL_#29921
T3 sequence: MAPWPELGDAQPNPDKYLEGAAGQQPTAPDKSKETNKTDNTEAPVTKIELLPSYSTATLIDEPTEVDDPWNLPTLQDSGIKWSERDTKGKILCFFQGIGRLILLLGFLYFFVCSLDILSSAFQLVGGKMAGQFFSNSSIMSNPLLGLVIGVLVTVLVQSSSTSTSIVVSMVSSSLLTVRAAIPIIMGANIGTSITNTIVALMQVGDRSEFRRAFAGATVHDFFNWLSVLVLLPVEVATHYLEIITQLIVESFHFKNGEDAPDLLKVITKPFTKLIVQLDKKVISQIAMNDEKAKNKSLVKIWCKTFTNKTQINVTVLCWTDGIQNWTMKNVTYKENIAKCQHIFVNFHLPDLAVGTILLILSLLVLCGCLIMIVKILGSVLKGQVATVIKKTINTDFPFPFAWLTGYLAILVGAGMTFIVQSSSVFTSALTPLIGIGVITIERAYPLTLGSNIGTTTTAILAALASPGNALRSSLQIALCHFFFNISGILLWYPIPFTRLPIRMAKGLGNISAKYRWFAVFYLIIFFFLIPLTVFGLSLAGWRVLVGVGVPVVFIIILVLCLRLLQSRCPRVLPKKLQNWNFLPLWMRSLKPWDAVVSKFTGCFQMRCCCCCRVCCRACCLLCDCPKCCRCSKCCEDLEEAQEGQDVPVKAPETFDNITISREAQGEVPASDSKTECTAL


Key:
human NaPi2c = biological target: T1, human NaPi2c; assay: flow cytometry on HEK293-6e cells transfected with human NaPi2c, 24 h at 4 C, anti-human IgG Fc AF647
[1] = biological target: T4, Construct 5 (chimeric human NaPi2b, swap in NaPi2a in 304-348) (human); assay: flow cytometry, transfected HEK293-6e cells, antibody 20 nM
T4 construct: also called CL_#13436

[2] = biological target: T2, Full length human NaPi2b …; assay: as above
[3] = biological target: T5, Construct 1 (chimeric human NaPi2b, swap in NaPi2c in 239-259) (human); assay: as above
T5 construct: also called CL_#29914

[4] = biological target: T6, Construct 2 (chimeric human NaPi2b, swap in NaPi2c in 280-301) (human); assay: as above
T6 construct: also called CL_#29915

[5] = biological target: T7, Construct 4 (chimeric human NaPi2b, swap in NaPi2c in 341-358) (human); assay: as above
T7 construct: also called CL_#13435

[6] = biological target: T3, Construct 7 (human NaPi2b del 317-326); assay: flow cytometry, transfected HEK293-6e cells, antibody 200 nM;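 note: cells incubated with antibody for 24 h at 4 °C, background taken as average MFI of unstained cells without primary antibody, at least 1,000 events per well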

Binder	binding result (human NaPi2c)	Background-Subtracted AF647 Mean Fluorescence Intensity [1]	Background-Subtracted AF647 Mean Fluorescence Intensity [2]	Background-Subtracted AF647 Mean Fluorescence Intensity [3]	Background-Subtracted AF647 Mean Fluorescence Intensity [4]	Background-Subtracted AF647 Mean Fluorescence Intensity [5]	Background-Subtracted AF647 Mean Fluorescence Intensity [6]
v22277 (palivizumab, anti-RSV negative control, heterodimeric Fc) (antibody, human IgG1, kappa, also called neg control) heavy 1: GQVTLRESGPALVKPTQTLTLTCTFSGFSLSTSGMSVGWIRQPPGKALEWLADIWWDDKKDYNPSLKSRLTISKDTSKNQVVLKVTNMDPADTATYYCARSMITNWYFDVWGAGTTVTVSSASTKGPSVFPLAPSSKSTSGGTAALGCLVKDYFPEPVTVSWNSGALTSGVHTFPAVLQSSGLYSLSSVVTVPSSSLGTQTYICNVNHKPSNTKVDKKVEPKSCDKTHTCPPCPAPELLGGPSVFLFPPKPKDTLMISRTPEVTCVVVDVSHEDPEVKFNWYVDGVEVHNAKTKPREEQYNSTYRVVSVLTVLHQDWLNGKEYKCKVSNKALPAPIEKTISKAKGQPREPQVYVYPPSRDELTKNQVSLTCLVKGFYPSDIAVEWESNGQPENNYKTTPPVLDSDGSFALVSKLTVDKSRWQQGNVFSCSVMHEALHNHYTQKSLSLSPG heavy 2: not shown light: GDIQMTQSPSTLSASVGDRVTITCKSQLSVGYMHWYQQKPGKAPKLLIYDTSKLASGVPSRFSGSGSGTEFTLTISSLQPDDFATYYCFQGSGYPFTFGGGTKLEIKRTVAAPSVFIFPPSDEQLKSGTASVVCLLNNFYPREAKVQWKVDNALQSGNSQESVTEQDSKDSTYSLSSTLTLSKADYEKHKVYACEVTHQGLSSPVTKSFNRGEC	no binding (tested: 200 nM)	–	–	–	–	–	–
v18993 (lifastuzumab), reference anti-NaPi2b antibody (antibody, human IgG1, kappa) heavy 1: GEVQLVESGGGLVQPGGSLRLSCAASGFSFSDFAMSWVRQAPGKGLEWVATIGRVAFHTYYPDSMKGRFTISRDNSKNTLYLQMNSLRAEDTAVYYCARHRGFDVGHFDFWGQGTLVTVSSASTKGPSVFPLAPSSKSTSGGTAALGCLVKDYFPEPVTVSWNSGALTSGVHTFPAVLQSSGLYSLSSVVTVPSSSLGTQTYICNVNHKPSNTKVDKKVEPKSCDKTHTCPPCPAPELLGGPSVFLFPPKPKDTLMISRTPEVTCVVVDVSHEDPEVKFNWYVDGVEVHNAKTKPREEQYNSTYRVVSVLTVLHQDWLNGKEYKCKVSNKALPAPIEKTISKAKGQPREPQVYVYPPSRDELTKNQVSLTCLVKGFYPSDIAVEWESNGQPENNYKTTPPVLDSDGSFALVSKLTVDKSRWQQGNVFSCSVMHEALHNHYTQKSLSLSPG heavy 2: not shown light: GDIQMTQSPSSLSASVGDRVTITCRSSETLVHSSGNTYLEWYQQKPGKAPKLLIYRVSNRFSGVPSRFSGSGSGTDFTLTISSLQPEDFATYYCFQGSFNPLTFGQGTKVEIKRTVAAPSVFIFPPSDEQLKSGTASVVCLLNNFYPREAKVQWKVDNALQSGNSQESVTEQDSKDSTYSLSSTLTLSKADYEKHKVYACEVTHQGLSSPVTKSFNRGEC	no binding (tested: 200 nM)	–	–	–	–	–	–
v18992 (MX35), reference anti-NaPi2b antibody (antibody, human IgG1, kappa) heavy 1: GQVQLVQSGAEVVKPGASVKMSCKASGYTFTGYNIHWVKQAPGQGLEWIGAIYPGNGDTSYKQKFRGRATLTADTSTSTVYMELSSLRSEDSAVYYCARGETARATFAYWGQGTLVTVSSASTKGPSVFPLAPSSKSTSGGTAALGCLVKDYFPEPVTVSWNSGALTSGVHTFPAVLQSSGLYSLSSVVTVPSSSLGTQTYICNVNHKPSNTKVDKKVEPKSCDKTHTCPPCPAPELLGGPSVFLFPPKPKDTLMISRTPEVTCVVVDVSHEDPEVKFNWYVDGVEVHNAKTKPREEQYNSTYRVVSVLTVLHQDWLNGKEYKCKVSNKALPAPIEKTISKAKGQPREPQVYVYPPSRDELTKNQVSLTCLVKGFYPSDIAVEWESNGQPENNYKTTPPVLDSDGSFALVSKLTVDKSRWQQGNVFSCSVMHEALHNHYTQKSLSLSPG heavy 2: not shown light: GDIQMTQSPSSLSASVGDRVTITCSASQDIGNFLNWYQQKPGKTVKVLIYYTSSLYSGVPSRFSGSGSGTDYTLTISSLQPEDFATYYCQQYSKLPLTFGQGTKLELKRTVAAPSVFIFPPSDEQLKSGTASVVCLLNNFYPREAKVQWKVDNALQSGNSQESVTEQDSKDSTYSLSSTLTLSKADYEKHKVYACEVTHQGLSSPVTKSFNRGEC	no binding (tested: 200 nM)	–	–	–	–	–	–
MX35 (v18992), reference anti-NaPi2b antibody (antibody, human IgG1, kappa) heavy 1: GQVQLVQSGAEVVKPGASVKMSCKASGYTFTGYNIHWVKQAPGQGLEWIGAIYPGNGDTSYKQKFRGRATLTADTSTSTVYMELSSLRSEDSAVYYCARGETARATFAYWGQGTLVTVSSASTKGPSVFPLAPSSKSTSGGTAALGCLVKDYFPEPVTVSWNSGALTSGVHTFPAVLQSSGLYSLSSVVTVPSSSLGTQTYICNVNHKPSNTKVDKKVEPKSCDKTHTCPPCPAPELLGGPSVFLFPPKPKDTLMISRTPEVTCVVVDVSHEDPEVKFNWYVDGVEVHNAKTKPREEQYNSTYRVVSVLTVLHQDWLNGKEYKCKVSNKALPAPIEKTISKAKGQPREPQVYVYPPSRDELTKNQVSLTCLVKGFYPSDIAVEWESNGQPENNYKTTPPVLDSDGSFALVSKLTVDKSRWQQGNVFSCSVMHEALHNHYTQKSLSLSPG heavy 2: not shown light: GDIQMTQSPSSLSASVGDRVTITCSASQDIGNFLNWYQQKPGKTVKVLIYYTSSLYSGVPSRFSGSGSGTDYTLTISSLQPEDFATYYCQQYSKLPLTFGQGTKLELKRTVAAPSVFIFPPSDEQLKSGTASVVCLLNNFYPREAKVQWKVDNALQSGNSQESVTEQDSKDSTYSLSSTLTLSKADYEKHKVYACEVTHQGLSSPVTKSFNRGEC	–	79 MFI	1250 MFI	1820 MFI	1250 MFI	979 MFI	298 MFI
v38591 (humanized anti-NaPi2b antibody, wild-type Fc) (antibody, human IgG1, kappa, also called v38591 Wild-type; H1L2) heavy: not shown light: DVQMTQSPSSLSASVGDRVTITCRASQDVYSYLNWYQQKPGKAVKLLIYYTSRLQSGVPSRFSGSGSGTDYTLTISSLQPEDFATYYCQQYNIFPWTFGQGTKLEIKRTVAAPSVFIFPPSDEQLKSGTASVVCLLNNFYPREAKVQWKVDNALQSGNSQESVTEQDSKDSTYSLSSTLTLSKADYEKHKVYACEVTHQGLSSPVTKSFNRGEC	no binding (tested: 200 nM)	–	–	–	–	–	–
v38591 (humanized anti-NaPi2b antibody, H1L2, wild-type Fc, heavy chains with C-terminal lysine) (antibody, human IgG1, kappa, Full-size human IgG1/kappa antibody; also called v38591 (wild-type Fc)) heavy: not shown light: DVQMTQSPSSLSASVGDRVTITCRASQDVYSYLNWYQQKPGKAVKLLIYYTSRLQSGVPSRFSGSGSGTDYTLTISSLQPEDFATYYCQQYNIFPWTFGQGTKLEIKRTVAAPSVFIFPPSDEQLKSGTASVVCLLNNFYPREAKVQWKVDNALQSGNSQESVTEQDSKDSTYSLSSTLTLSKADYEKHKVYACEVTHQGLSSPVTKSFNRGEC	–	–	1420 MFI	1860 MFI	1340 MFI	993 MFI	626 MFI
